Assay in all cases: ITC
Background: ITC needs no label: the signal is the heat of the interaction.

Experiment [1] addresses human activated factor X (Homo sapiens) (UniProt P00742).
For experiment [2], the target named is human factor IX (zymogen) (Homo sapiens) (UniProt P00740).
Experiment [3] deals with human activated factor IX (Homo sapiens) (UniProt P00740).
Experiment [4] concerns the target human factor X (zymogen) (Homo sapiens) (UniProt P00742).

human factor IX (zymogen) (Homo sapiens), sequence (P00740 47-461): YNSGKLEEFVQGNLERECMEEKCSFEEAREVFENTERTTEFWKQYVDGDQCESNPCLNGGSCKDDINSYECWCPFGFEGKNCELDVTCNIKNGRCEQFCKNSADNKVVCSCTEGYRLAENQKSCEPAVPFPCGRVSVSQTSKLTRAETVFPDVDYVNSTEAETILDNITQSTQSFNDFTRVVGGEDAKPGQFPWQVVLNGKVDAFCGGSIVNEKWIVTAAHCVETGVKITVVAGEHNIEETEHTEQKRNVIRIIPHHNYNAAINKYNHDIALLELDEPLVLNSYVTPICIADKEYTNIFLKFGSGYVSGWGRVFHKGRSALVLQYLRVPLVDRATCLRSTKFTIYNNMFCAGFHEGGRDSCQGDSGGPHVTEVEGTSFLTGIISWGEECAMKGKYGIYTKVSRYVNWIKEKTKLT
human activated factor IX (Homo sapiens), sequence (P00740 47-191, chain 1 of 2): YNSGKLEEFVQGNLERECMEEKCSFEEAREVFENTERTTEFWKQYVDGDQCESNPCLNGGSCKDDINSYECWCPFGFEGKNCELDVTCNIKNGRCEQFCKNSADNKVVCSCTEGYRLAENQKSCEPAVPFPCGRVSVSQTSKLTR
human activated factor IX (Homo sapiens), sequence (P00740 227-461, chain 2 of 2): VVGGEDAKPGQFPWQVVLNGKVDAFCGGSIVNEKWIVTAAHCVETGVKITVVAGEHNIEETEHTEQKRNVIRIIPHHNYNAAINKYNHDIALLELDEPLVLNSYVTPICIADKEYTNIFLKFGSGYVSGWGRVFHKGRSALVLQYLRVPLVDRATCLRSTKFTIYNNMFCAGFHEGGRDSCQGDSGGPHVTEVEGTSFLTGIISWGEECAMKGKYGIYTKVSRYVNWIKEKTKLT
human factor X (zymogen) (Homo sapiens), sequence (P00742 whole entry, looked up): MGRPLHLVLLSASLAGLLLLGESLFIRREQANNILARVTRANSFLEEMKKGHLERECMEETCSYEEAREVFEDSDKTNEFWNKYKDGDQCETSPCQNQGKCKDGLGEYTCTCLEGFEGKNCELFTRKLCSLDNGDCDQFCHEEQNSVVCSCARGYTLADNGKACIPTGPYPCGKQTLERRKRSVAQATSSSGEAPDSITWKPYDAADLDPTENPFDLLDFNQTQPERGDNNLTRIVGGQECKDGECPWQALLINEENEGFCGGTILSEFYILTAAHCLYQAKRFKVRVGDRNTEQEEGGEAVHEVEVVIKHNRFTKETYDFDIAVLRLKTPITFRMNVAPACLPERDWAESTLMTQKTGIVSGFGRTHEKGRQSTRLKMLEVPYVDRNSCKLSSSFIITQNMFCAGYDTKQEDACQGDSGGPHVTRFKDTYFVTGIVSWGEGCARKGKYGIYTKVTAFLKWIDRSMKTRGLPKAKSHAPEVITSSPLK
human activated factor X (Homo sapiens), sequence (P00742 235-488, chain 1 of 2): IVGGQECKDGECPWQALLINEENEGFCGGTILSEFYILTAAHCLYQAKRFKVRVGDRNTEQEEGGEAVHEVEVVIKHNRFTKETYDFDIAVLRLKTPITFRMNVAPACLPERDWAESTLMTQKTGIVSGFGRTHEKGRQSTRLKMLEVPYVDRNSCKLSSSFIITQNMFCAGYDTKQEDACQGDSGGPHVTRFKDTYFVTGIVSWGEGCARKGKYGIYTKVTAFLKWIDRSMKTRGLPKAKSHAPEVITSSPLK
human activated factor X (Homo sapiens), sequence (P00742 235-488, chain 2 of 2): as the sequence (P00742 235-488, chain 1 of 2) above

Regarding Mim8 (bispecific antibody), the Kd (in general, a measure of binding affinity in units of concentration) in experiment [1] was 300 nM; in experiment [2] it was 4700 nM; in experiment [3] it was 2300 nM; in experiment [4], 1500 nM.

The values above are taken from paper PMC8499050.
